Laboratory results reported in publication doi:10.1101/2023.04.28.538690, “Post-translational modification of SPATULA by SECRET AGENT and SPINDLY promotes organ symmetry transition at the gynoecium apex” (bioRxiv, 2023).

How the values were obtained:
Assay in all cases: FRET or BRET; FRET-FLIM in nuclei of co-infiltrated N. benthamiana leaves (with P19), 48 h; SPT-EGFP as donor, RFP fusions as acceptors; with or without co-expressed SEC-3xHA or SPY-3xHA; at least 60 nuclei per condition
[1] = target: the molecule itself
[2] = target: T1, INDEHISCENT (IND) fused to RFP (p35S:IND-RFP) (Arabidopsis thaliana, UniProt O81313 1-198); settings: partners not purified
T1 construct: INDEHISCENT (IND), bHLH transcription factor of Arabidopsis thaliana; source: N. benthamiana leaves, Agrobacterium-infiltrated, in nuclei of the leaf cells
T1 sequence (looked up): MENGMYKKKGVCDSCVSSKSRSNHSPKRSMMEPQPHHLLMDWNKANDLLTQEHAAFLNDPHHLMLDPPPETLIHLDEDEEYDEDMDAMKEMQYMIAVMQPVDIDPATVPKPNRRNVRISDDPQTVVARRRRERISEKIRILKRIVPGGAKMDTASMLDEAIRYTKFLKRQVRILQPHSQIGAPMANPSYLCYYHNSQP

[3] = target: T2, HECATE 1 (HEC1) fused to RFP (p35S:HEC1-RFP) (Arabidopsis thaliana, UniProt Q9FHA7 1-241); settings: partners not purified
T2 construct: HECATE 1 (HEC1), bHLH transcription factor of Arabidopsis thaliana; source: N. benthamiana leaves, Agrobacterium-infiltrated, in nuclei of the leaf cells
T2 sequence (looked up): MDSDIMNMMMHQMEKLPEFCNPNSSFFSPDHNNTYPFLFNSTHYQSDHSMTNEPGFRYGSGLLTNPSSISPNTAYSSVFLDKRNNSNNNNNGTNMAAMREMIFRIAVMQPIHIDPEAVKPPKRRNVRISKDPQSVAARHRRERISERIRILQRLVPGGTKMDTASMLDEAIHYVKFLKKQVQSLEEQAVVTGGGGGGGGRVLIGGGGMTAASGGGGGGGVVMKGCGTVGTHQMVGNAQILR

FRET efficiency [2]: 9.6% | FRET efficiency [3]: 7.4%
B1: SPATULA (SPT) fused to EGFP (p35S:SPT-GFP); second copy in the homodimer test fused to RFP (p35S:SPT-RFP) (natural protein, Arabidopsis thaliana, UniProt Q9FUA4 1-373, looked up)
chain: MISQREEREEKKQRVMGDKKLISSSSSSSVYDTRINHHLHHPPSSSDEISQFLRHIFDRSSPLPSYYSPATTTTTASLIGVHGSGDPHADNSRSLVSHHPPSDSVLMSKRVGDFSEVLIGGGSGSAAACFGFSGGGNNNNVQGNSSGTRVSSSSVGASGNETDEYDCESEEGGEAVVDEAPSSKSGPSSRSSSKRCRAAEVHNLSEKRRRSRINEKMKALQSLIPNSNKTDKASMLDEAIEYLKQLQLQVQMLTMRNGINLHPLCLPGTTLHPLQLSQIRPPEATNDPLLNHTNQFASTSNAPEMINTVASSYALEPSIRSHFGPFPLLTSPVEMSREGGLTHPRLNIGHSNANITGEQALFDGQPDLKDRIT
notes: SPATULA (SPT) of Arabidopsis thaliana; In the SPT;SPT test one copy carried EGFP (FRET donor) and the other RFP (acceptor) in place of EGFP; both copies are written as this one molecule; also called SPT-EGFP; source: N. benthamiana leaves, Agrobacterium-infiltrated, in nuclei of the leaf cells
FRET efficiency [1]: 5.7%
